Measurements as given in the Human Domainome abundance scans (Beltran et al. 2025).
± gives the uncertainty stated by the source.

assay: abundance fitness (aPCA) (normalised: wild type 0, dead -1); higher = more abundant; growth selection in yeast, the domain comes from the species named; conditions: Homo sapiens

Substance | abundance fitness
SAFB-like transcription modulator E57G, Q9NWH9 | -0.204 ± 0.044
SAFB-like transcription modulator E57H, Q9NWH9 | 0.063 ± 0.16
SAFB-like transcription modulator E57I, Q9NWH9 | 0.048 ± 0.39
SAFB-like transcription modulator E57K, Q9NWH9 | -0.159 ± 0.11
SAFB-like transcription modulator E57L, Q9NWH9 | -0.049 ± 0.071
SAFB-like transcription modulator E57M, Q9NWH9 | -0.164 ± 0.094
SAFB-like transcription modulator E57Q, Q9NWH9 | -0.667 ± 0.25
SAFB-like transcription modulator E57R, Q9NWH9 | 0.034 ± 0.06
SAFB-like transcription modulator E57S, Q9NWH9 | -0.031 ± 0.056
SAFB-like transcription modulator E57T, Q9NWH9 | -0.122 ± 0.079
SAFB-like transcription modulator E57V, Q9NWH9 | -0.064 ± 0.063
SAFB-like transcription modulator E57W, Q9NWH9 | -0.124 ± 0.059
SAFB-like transcription modulator E57Y, Q9NWH9 | -0.319 ± 0.11
SAFB-like transcription modulator E58A, Q9NWH9 | -0.026 ± 0.06
SAFB-like transcription modulator E58C, Q9NWH9 | -0.113 ± 0.064
SAFB-like transcription modulator E58D, Q9NWH9 | -0.444 ± 0.15
SAFB-like transcription modulator E58F, Q9NWH9 | -0.105 ± 0.054
SAFB-like transcription modulator E58G, Q9NWH9 | -0.021 ± 0.051
SAFB-like transcription modulator E58H, Q9NWH9 | 0.147 ± 0.084
SAFB-like transcription modulator E58K, Q9NWH9 | -0.134 ± 0.084
SAFB-like transcription modulator E58L, Q9NWH9 | -0.036 ± 0.036

Substance | abundance fitness
SAFB-like transcription modulator E58M, Q9NWH9 | 0.008 ± 0.071
SAFB-like transcription modulator E58N, Q9NWH9 | -0.068 ± 0.077
SAFB-like transcription modulator E58P, Q9NWH9 | -0.867 ± 0.12
SAFB-like transcription modulator E58Q, Q9NWH9 | -0.014 ± 0.077
SAFB-like transcription modulator E58R, Q9NWH9 | 0.028 ± 0.034
SAFB-like transcription modulator E58S, Q9NWH9 | 0.024 ± 0.053
SAFB-like transcription modulator E58T, Q9NWH9 | -0.043 ± 0.067
SAFB-like transcription modulator E58V, Q9NWH9 | -0.074 ± 0.06
SAFB-like transcription modulator E58W, Q9NWH9 | -0.52 ± 0.076
SAFB-like transcription modulator E58Y, Q9NWH9 | -0.342 ± 0.076
SAFB-like transcription modulator E59C, Q9NWH9 | -0.404 ± 0.037
SAFB-like transcription modulator E59D, Q9NWH9 | -0.225 ± 0.087
SAFB-like transcription modulator E59F, Q9NWH9 | -0.924 ± 0.07
SAFB-like transcription modulator E59G, Q9NWH9 | -0.226 ± 0.044
SAFB-like transcription modulator E59I, Q9NWH9 | -0.784 ± 0.1
SAFB-like transcription modulator E59K, Q9NWH9 | -0.653 ± 0.13
SAFB-like transcription modulator E59L, Q9NWH9 | -0.794 ± 0.041
SAFB-like transcription modulator E59N, Q9NWH9 | -0.275 ± 0.056
SAFB-like transcription modulator E59P, Q9NWH9 | -0.768 ± 0.05
SAFB-like transcription modulator E59Q, Q9NWH9 | -0.336 ± 0.078
